The labels stand for the following.
B1: His-tagged Arl4A T51N [not stated] / GST-VPS36 (201–386) [not stated] (parent complex)
chain 1: MGNGLSDQTSILSNLPSFQSFHIVILGLDCAGKTTVLYRLQFNEFVNTVPNKGFNTEKIKVTLGNSKTVTFHFWDVGGQEKLRPLWKSYTRCTDGIVFVVDSVDVERMEEAKTELHKITRISENQGVPVLIVANKQDLRNSLSLSEIEKLLAMGELSSSTPWHLQPTCAIIGDGLKEGLEKLHDMIIKRRKMLRQQKKKR
chain 2: KIKDKQGDITEDETIRFKSYLLSMGIANPVTRETYGSGTQYHMQLAKQLAGILQVPLEERGGIMSLTEVYCLVNRARGMELLSPEDLVNACKMLEALKLPLRLRVFDSGVMVIELQSHKEEEMVASALETVSEKGSLTSEEFAKLVGMSVLLAKERLLLAEKMGHLCRDDSVEGLRFYPNLFMTQS
B2: untagged Arl4A T51N (pSG5) [not stated] / VPS36-WT-Myc [not stated] (parent complex)
chain 1: B1 chain 1
chain 2: MDRFVWTSGLLEINETLVIQQRGVRIYDGEEKIKFDAGTLLLSTHRLIWRDQKNHECCMAILLSQIVFIEEQAAGIGKSAKIVVHLHPAPPNKEPGPFQSSKNSYIKLSFKEHGQIEFYRRLSEEMTQRRWENMPVSQSLQTNRGPQPGRIRAVGIVGIERKLEEKRKETDKNISEAFEDLSKLMIKAKEMVELSKSIANKIKDKQGDITEDETIRFKSYLLSMGIANPVTRETYGSGTQYHMQLAKQLAGILQVPLEERGGIMSLTEVYCLVNRARGMELLSPEDLVNACKMLEALKLPLRLRVFDSGVMVIELQSHKEEEMVASALETVSEKGSLTSEEFAKLVGMSVLLAKERLLLAEKMGHLCRDDSVEGLRFYPNLFMTQS

The variants in the first assay derive from B1. The assay can be described thus: GST pull-down with densitometric quantification; parent: 1; read off a plot.
On to chain 2 L152A, chain 2 K154A, chain 2 E155A, chain 2 R156A, for which the ratio to parent was approximately 0.09.

As to chain 2 F142A, chain 2 K144A, chain 2 L145A, chain 2 V146A, the ratio to parent is approximately 0.31.

Regarding chain 2 L137A, chain 2 T138A, chain 2 S139A, chain 2 E140A, chain 2 E141A, the ratio to parent is approximately 0.22.

A further assay covers variants of B2. The assay can be described thus: co-immunoprecipitation (Myc-Trap) with densitometric quantification; HeLa cell lysates; parent: 1; read off a plot.
Consider chain 2 L352A, chain 2 K354A, chain 2 E355A, chain 2 R356A, for which the ratio to parent was approximately 0.54.

The values above are taken from paper PMC10687025, “Endosomal Arl4A attenuates EGFR degradation by binding to the ESCRT-II component VPS36” (Nature Communications, 2023).
